Experimental data published in patent publication US20160075790A1 (Bristol-Myers Squibb, published 2016).
Several values for one entry are separate records, joined by “and”; a condition that tells them apart may be missing. Identical values can stand only once.

T1: human isoleucine zipper-CD40L (IZ-hCD40L) (human, UniProt P29965 113-261)
T1 sequence: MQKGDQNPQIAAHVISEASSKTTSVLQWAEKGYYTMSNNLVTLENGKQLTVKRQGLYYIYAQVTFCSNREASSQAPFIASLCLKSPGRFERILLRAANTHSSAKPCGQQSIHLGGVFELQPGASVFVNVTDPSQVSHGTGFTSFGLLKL


target: T1, human isoleucine zipper-CD40L …; test: cell-based or functional assay

| Binder | hIZCD40L-driven Human B Cell Proliferation EC50 |
| --- | --- |
| BMS2h-712 (other) VH: EVQLLESGGGLVQPGGSLRLSCAASGFTFPEYEMKWVRQAPGKGLEWVSTITPSGGHTYYADSVKGRFTISRDNSKNTLYLQMNSLRAEDAAVYYCAIPLSSFDYWGRGTLVTVSS | > 7000 nM |
| BMS2h-717 (other) VH: EVQLLESGGGLVQPGGSLRLSCAASGFTFSSYEMAWVRQAPGKGLEWVSRIEPDGSNTYYADSVKGRFTISRDNSKNTLYLQMNSLRAEDTAVYYCAKGPDNFTMFDYWGQGTLVTVSS | > 7000 nM |
| BMS2h-706 (other) VH: EVQLLESGGGLVQPGGSLRLSCAASGFTFGSYKMLWVRQAPGKGLEWVSSITNSGTETYYADSVKGRFTISRDNSKNTLYLQMNSLRAEDTAVYYCAKSMYPDLEIVHFDYWGQGTLVTVSS | > 7000 nM |
| BMS2h-703 (other) VH: EVQLLESGGGLVQPGGSLRLSCAASGFTFYNYDMSWVRQAPGKGLEWVSGIDSMGLVTYYADSVKGRFTISRDNSKNTLYLQMNSLRAEDTAVYYCAKGSNASDWVVFDYWGQGTLVTVSS | > 7000 nM |
| BMS2h-572-22 (other) VH: EVQLFESGGGSVQPGGSLRLSCAASGFTFNWQLMGWVRQAPGKGLEWVSGIEGPGDVTYYADSVKGRFTISRDNSKNTLYLQMNSLRAEDTAVYYCAKVGKESNSDYRGQGTLVTVSS | 357 nM and 305 nM |
| BMS2h-719-203 (other) VH: EVQLLESGGGLVQPGGSLRLSCAASGFTFNSYEMMWVRQAPGKGLEWVSSISSDGSFTYYADSVKGRFTISRDNSKNTLYLQMNSLRAEDTAVYYCAEPFTEFDYWGHGTLVTVSS | 81 nM and 96 nM |
| BMS2h-710 (other) VH: EVQLLESGGGLVQPGGSLRLSCAASGFTFNTYSMSWVRQAPGKGLEWVSWIDADGWVTYYADSVKGRFTISRDNSKNTLYLQMNSLRAEDTAVYYCAQTGHTFDYWGQGTLVTVSS | > 7000 nM |

The remaining lines, values ahead:

| hIZCD40L-driven Human B Cell Proliferation EC50 | Binder |
| --- | --- |
| 79 nM and 76 nM | BMS2h-572-12 (other) VH: EVQLLESGGGLVQPGGSLRLSCAASGFTFNWQLMGWARQAPGKGLEWVSGIEGPGDVTYYADSVKGRFTISRDNSKNTLYLQMNSLRAEDTAVYYCAKVGKESNSDYRGQGTLVTVSS |
| > 7000 nM | BMS2h-702 (other) VH: EVQLLESGGGLVQPGGSLRLSCAASGFTFAEYEMMWARQAPGKGLEWVSRIAGNGSRTYYADSVKGRFTISRDNSKNTLYLQMNSLRAEDTAVYYCAIMLSHFDYWGQGTLVTVSS |
| > 7000 nM | BMS2h-707 (other) VH: EVQLLESGGGLVQPGGSLRLSCAASGFTFETYRMSWVRQAPGKGLEWVSAIDQEGSATYYADSVKGRFTISRDNSKNTLYLQMNSLRAEDTAVYYCAKNSGTRPGLRFDYWGQGTLVTVSS |
| 600 nM | BMS2h-719 (other) VH: EVQLLESGGGLVQPGGSLRLSCAASGFTFKRYEMTWVRQAPGKGLEWVSSISSDGSFTYYADSVKGRFTISRDNSKNTLYLQMNSLRAEDTAVYYCAEPFTEFDYWGQGTLVTVSS |
| 62 nM and 98 nM | BMS2h-719-213 (other) VH: EVQLLESGGGLVQPGGSLRLSCAASGFTFKRYEMMWVRQAPGKGLEWVSSISSDGSFTYYADSVKGRFTISRDNSKNTLYLQMNSLRAEDTAVYYCADPFTEMDYWGHGTLVTVSS |
| 66 nM and 89 nM | BMS2h-719-214 (other) VH: EVQLLESGGGLVQPGGSLRLSCAASGFTFKRYEMMWVRQAPGKGLEWVSSISSDGSFTYYADSVKGRFTISRDNSKNTLYLQMNSLRAEDTAVYYCADPFTEFDYWGHGTLVTVSS |
